Among the data in publication PMC7017226 are PLA complexes per cell (complexes per cell) values, retold here.

The target in test [1] is Stromal interacting molecule 2 (STIM2) (rat (endogenous in primary cortical neurons)). The test can be described thus: proximity ligation; Duolink in situ PLA on fixed 17-day-old rat cortical neurons; rabbit anti-STIM1 or anti-STIM2 with mouse anti-NR2A or anti-NR2B; cells treated 10 min with 2 mM CaCl2 (control) or 2 uM TG in 0.5 mM EGTA; PLA signals per cell counted in ImageJ.

The target of test [2] is Stromal interacting molecule 1 (STIM1) (rat (endogenous in primary cortical neurons)) (UniProt P84903). Described as above.
Stromal interacting molecule 1 (STIM1) (rat (endogenous in primary cortical neurons)), sequence (P84903 23-685): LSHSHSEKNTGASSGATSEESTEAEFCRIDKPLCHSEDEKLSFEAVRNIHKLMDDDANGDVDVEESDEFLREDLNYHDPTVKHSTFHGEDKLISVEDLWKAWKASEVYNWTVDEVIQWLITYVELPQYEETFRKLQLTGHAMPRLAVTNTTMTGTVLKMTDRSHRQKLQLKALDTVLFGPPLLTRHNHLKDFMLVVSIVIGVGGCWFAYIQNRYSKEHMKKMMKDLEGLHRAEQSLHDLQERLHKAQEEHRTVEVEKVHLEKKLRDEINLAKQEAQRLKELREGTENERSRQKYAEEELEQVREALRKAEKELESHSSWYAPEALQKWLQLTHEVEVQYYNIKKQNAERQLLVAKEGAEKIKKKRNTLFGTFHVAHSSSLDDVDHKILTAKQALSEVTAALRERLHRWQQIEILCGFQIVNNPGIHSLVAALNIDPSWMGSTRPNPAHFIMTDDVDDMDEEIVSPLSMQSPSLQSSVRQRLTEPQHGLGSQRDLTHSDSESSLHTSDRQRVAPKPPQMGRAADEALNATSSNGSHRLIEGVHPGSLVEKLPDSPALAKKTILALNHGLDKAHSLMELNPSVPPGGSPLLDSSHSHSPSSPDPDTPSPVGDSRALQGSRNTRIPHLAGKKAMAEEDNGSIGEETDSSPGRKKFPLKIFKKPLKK

NMDA receptor subunit NR2A, sequence (Q00959 23-1464): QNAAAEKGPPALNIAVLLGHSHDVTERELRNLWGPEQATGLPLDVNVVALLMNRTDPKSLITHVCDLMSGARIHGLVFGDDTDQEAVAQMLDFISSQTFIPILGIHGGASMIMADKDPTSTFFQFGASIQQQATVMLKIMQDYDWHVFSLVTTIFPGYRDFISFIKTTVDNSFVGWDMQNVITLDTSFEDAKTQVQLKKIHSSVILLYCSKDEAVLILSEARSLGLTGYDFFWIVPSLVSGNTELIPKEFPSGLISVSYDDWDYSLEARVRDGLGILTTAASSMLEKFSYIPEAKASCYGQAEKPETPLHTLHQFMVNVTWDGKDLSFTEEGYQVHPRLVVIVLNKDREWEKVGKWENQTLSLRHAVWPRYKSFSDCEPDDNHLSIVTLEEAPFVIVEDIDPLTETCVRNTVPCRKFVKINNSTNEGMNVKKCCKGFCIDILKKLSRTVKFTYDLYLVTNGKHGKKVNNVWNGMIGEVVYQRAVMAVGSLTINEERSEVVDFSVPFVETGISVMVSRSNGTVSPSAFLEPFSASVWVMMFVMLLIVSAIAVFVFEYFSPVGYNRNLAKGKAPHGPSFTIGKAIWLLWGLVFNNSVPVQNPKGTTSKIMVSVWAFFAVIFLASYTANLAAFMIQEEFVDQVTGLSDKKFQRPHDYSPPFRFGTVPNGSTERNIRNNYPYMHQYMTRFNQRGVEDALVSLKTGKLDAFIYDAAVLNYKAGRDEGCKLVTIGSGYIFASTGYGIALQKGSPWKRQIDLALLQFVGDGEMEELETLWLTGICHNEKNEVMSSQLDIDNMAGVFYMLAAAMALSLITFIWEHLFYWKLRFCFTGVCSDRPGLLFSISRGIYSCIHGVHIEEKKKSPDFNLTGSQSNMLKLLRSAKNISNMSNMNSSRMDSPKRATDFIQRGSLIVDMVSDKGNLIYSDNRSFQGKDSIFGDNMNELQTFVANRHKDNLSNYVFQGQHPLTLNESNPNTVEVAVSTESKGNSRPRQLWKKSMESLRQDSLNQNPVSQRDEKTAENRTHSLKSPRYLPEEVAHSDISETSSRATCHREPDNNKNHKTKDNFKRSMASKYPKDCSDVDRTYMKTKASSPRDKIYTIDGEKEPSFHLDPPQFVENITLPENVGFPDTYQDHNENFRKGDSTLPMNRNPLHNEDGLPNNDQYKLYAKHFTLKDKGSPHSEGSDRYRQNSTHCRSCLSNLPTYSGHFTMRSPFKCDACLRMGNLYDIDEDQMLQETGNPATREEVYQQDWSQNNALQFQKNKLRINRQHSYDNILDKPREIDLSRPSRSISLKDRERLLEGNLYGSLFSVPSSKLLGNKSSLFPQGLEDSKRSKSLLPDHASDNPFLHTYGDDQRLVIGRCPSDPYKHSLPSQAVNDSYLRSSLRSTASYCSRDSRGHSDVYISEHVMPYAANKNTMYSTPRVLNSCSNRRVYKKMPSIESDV
NMDA receptor subunit NR2B, Q00960 27-1482 (receptor; other documents disagree on this pair), sequence (Q00960 27-1482): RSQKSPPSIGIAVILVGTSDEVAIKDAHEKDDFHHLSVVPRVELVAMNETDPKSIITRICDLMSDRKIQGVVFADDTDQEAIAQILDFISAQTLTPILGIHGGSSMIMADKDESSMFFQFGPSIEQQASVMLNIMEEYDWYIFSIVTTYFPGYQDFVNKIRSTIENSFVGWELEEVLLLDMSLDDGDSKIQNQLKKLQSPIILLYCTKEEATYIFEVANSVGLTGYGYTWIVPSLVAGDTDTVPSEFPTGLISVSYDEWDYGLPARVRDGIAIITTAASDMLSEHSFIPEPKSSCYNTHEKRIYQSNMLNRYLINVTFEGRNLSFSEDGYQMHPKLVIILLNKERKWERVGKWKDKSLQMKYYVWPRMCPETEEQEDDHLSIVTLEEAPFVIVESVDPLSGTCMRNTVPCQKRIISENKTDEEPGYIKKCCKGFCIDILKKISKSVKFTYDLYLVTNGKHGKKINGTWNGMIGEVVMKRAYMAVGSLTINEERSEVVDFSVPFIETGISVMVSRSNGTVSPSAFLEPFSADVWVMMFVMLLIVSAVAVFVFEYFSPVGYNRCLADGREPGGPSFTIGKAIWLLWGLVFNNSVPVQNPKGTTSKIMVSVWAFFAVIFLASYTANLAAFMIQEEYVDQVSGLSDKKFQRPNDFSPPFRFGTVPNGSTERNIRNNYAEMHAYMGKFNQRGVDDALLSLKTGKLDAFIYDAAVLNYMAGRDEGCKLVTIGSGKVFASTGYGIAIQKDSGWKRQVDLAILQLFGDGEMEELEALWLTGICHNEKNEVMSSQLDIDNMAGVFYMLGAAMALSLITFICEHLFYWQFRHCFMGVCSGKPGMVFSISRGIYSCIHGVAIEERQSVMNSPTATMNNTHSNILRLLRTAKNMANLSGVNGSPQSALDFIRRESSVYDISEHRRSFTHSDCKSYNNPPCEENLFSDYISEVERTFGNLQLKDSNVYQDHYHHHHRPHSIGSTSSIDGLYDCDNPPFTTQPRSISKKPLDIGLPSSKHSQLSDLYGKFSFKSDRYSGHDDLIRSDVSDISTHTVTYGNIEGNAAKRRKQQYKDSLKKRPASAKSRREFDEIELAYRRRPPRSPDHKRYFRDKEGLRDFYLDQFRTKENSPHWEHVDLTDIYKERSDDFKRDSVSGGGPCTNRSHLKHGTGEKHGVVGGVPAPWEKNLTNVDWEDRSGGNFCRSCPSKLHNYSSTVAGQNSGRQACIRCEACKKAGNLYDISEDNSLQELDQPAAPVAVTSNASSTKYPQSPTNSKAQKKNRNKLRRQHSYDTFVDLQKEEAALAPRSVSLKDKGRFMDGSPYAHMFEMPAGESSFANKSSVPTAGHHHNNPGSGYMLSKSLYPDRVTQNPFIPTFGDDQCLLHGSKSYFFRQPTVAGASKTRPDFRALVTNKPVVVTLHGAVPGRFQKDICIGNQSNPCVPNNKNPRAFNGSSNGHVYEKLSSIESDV

As to “NMDA receptor subunit NR2A (from UniProt Q00959 23-1464)”, the PLA complexes per cell (complexes per cell) in test [1] amounted to 3.78.
Consider “NMDA receptor subunit NR2B, Q00960 27-1482 (receptor; other documents disagree on this pair)”, for which the PLA complexes per cell (complexes per cell) in test [2] worked out at 57.2.
